# The Human Domainome abundance scans (Beltran et al. 2025)
# ± gives the uncertainty stated by the source.
# B1: Segment polarity protein dishevelled homolog DVL-3, residues 2 to 81; numbered along this chain, Q92997 (parent)
# chain: GETKIIYHLDGQETPYLVKLPLPAERVTLADFKGVLQRPSYKFFFKSMDDDFGVVKEEISDDNAKLPCFNGRVVSWLVSA
# Variants of: B1
# Experiment: abundance fitness (aPCA) (normalised: wild type 0, dead -1); higher = more abundant; growth selection in yeast, the domain comes from the species named
# Conditions: Homo sapiens
row,Variant,abundance fitness
1,GETKIIYHLDGQETPYLVKLPLPAERVTLADFKGVLQRPSYKFFFKSMDDDFGYVKEEISDDNAKLPCFNGRVVSWLVSA [V54Y],-0.088 ± 0.12
2,GETKIIYHLDGQETPYLVKLPLPAERVTLADFKGVLQRPSYKFFFKSMDDDFGNVKEEISDDNAKLPCFNGRVVSWLVSA [V54N],-0.005 ± 0.11
3,GETKIIYHLDGQETPYLVKLPLPAERVTLADFKGVLQRPSYKFFFKSMDDDFGPVKEEISDDNAKLPCFNGRVVSWLVSA [V54P],0.069 ± 0.067
4,GETKIIYHLDGQETPYLVKLPLPAERVTLADFKGVLQRPSYKFFFKSMDDDFGSVKEEISDDNAKLPCFNGRVVSWLVSA [V54S],-0.082 ± 0.055
5,GETKIIYHLDGQETPYLVKLPLPAERVTLADFKGVLQRPSYKFFFKSMDDDFGCVKEEISDDNAKLPCFNGRVVSWLVSA [V54C],0.01 ± 0.075
6,GETKIIYHLDGQETPYLVKLPLPAERVTLADFKGVLQRPSYKFFFKSMDDDFGMVKEEISDDNAKLPCFNGRVVSWLVSA [V54M],-0.188 ± 0.079
7,GETKIIYHLDGQETPYLVKLPLPAERVTLADFKGVLQRPSYKFFFKSMDDDFGRVKEEISDDNAKLPCFNGRVVSWLVSA [V54R],-0.556 ± 0.064
8,GETKIIYHLDGQETPYLVKLPLPAERVTLADFKGVLQRPSYKFFFKSMDDDFGQVKEEISDDNAKLPCFNGRVVSWLVSA [V54Q],-0.241 ± 0.089
9,GETKIIYHLDGQETPYLVKLPLPAERVTLADFKGVLQRPSYKFFFKSMDDDFGHVKEEISDDNAKLPCFNGRVVSWLVSA [V54H],0.002 ± 0.12
10,GETKIIYHLDGQETPYLVKLPLPAERVTLADFKGVLQRPSYKFFFKSMDDDFGLVKEEISDDNAKLPCFNGRVVSWLVSA [V54L],-0.083 ± 0.053
11,GETKIIYHLDGQETPYLVKLPLPAERVTLADFKGVLQRPSYKFFFKSMDDDFGIVKEEISDDNAKLPCFNGRVVSWLVSA [V54I],0.175 ± 0.09
12,GETKIIYHLDGQETPYLVKLPLPAERVTLADFKGVLQRPSYKFFFKSMDDDFGGVKEEISDDNAKLPCFNGRVVSWLVSA [V54G],-0.127 ± 0.044
13,GETKIIYHLDGQETPYLVKLPLPAERVTLADFKGVLQRPSYKFFFKSMDDDFGDVKEEISDDNAKLPCFNGRVVSWLVSA [V54D],0.168 ± 0.08
14,GETKIIYHLDGQETPYLVKLPLPAERVTLADFKGVLQRPSYKFFFKSMDDDFGEVKEEISDDNAKLPCFNGRVVSWLVSA [V54E],0.192 ± 0.052
15,GETKIIYHLDGQETPYLVKLPLPAERVTLADFKGVLQRPSYKFFFKSMDDDFGFVKEEISDDNAKLPCFNGRVVSWLVSA [V54F],0.136 ± 0.076
16,GETKIIYHLDGQETPYLVKLPLPAERVTLADFKGVLQRPSYKFFFKSMDDDFGTVKEEISDDNAKLPCFNGRVVSWLVSA [V54T],-0.178 ± 0.082
17,GETKIIYHLDGQETPYLVKLPLPAERVTLADFKGVLQRPSYKFFFKSMDDDFGWVKEEISDDNAKLPCFNGRVVSWLVSA [V54W],0.13 ± 0.052

row,Variant,abundance fitness
1,GETKIIYHLDGQETPYLVKLPLPAERVTLADFKGVLQRPSYKFFFKSMDDDFGKVKEEISDDNAKLPCFNGRVVSWLVSA [V54K],-0.657 ± 0.14
2,GETKIIYHLDGQETPYLVKLPLPAERVTLADFKGVLQRPSYKFFFKSMDDDFGVDKEEISDDNAKLPCFNGRVVSWLVSA [V55D],-0.259 ± 0.12
3,GETKIIYHLDGQETPYLVKLPLPAERVTLADFKGVLQRPSYKFFFKSMDDDFGVIKEEISDDNAKLPCFNGRVVSWLVSA [V55I],0.151 ± 0.07
4,GETKIIYHLDGQETPYLVKLPLPAERVTLADFKGVLQRPSYKFFFKSMDDDFGVRKEEISDDNAKLPCFNGRVVSWLVSA [V55R],0.225 ± 0.036
5,GETKIIYHLDGQETPYLVKLPLPAERVTLADFKGVLQRPSYKFFFKSMDDDFGVAKEEISDDNAKLPCFNGRVVSWLVSA [V55A],-0.212 ± 0.058
6,GETKIIYHLDGQETPYLVKLPLPAERVTLADFKGVLQRPSYKFFFKSMDDDFGVCKEEISDDNAKLPCFNGRVVSWLVSA [V55C],0.198 ± 0.073
7,GETKIIYHLDGQETPYLVKLPLPAERVTLADFKGVLQRPSYKFFFKSMDDDFGVMKEEISDDNAKLPCFNGRVVSWLVSA [V55M],-0.024 ± 0.066
8,GETKIIYHLDGQETPYLVKLPLPAERVTLADFKGVLQRPSYKFFFKSMDDDFGVFKEEISDDNAKLPCFNGRVVSWLVSA [V55F],0.204 ± 0.083
9,GETKIIYHLDGQETPYLVKLPLPAERVTLADFKGVLQRPSYKFFFKSMDDDFGVTKEEISDDNAKLPCFNGRVVSWLVSA [V55T],0.195 ± 0.056
10,GETKIIYHLDGQETPYLVKLPLPAERVTLADFKGVLQRPSYKFFFKSMDDDFGVLKEEISDDNAKLPCFNGRVVSWLVSA [V55L],-0.21 ± 0.055
11,GETKIIYHLDGQETPYLVKLPLPAERVTLADFKGVLQRPSYKFFFKSMDDDFGVWKEEISDDNAKLPCFNGRVVSWLVSA [V55W],-0.189 ± 0.061
12,GETKIIYHLDGQETPYLVKLPLPAERVTLADFKGVLQRPSYKFFFKSMDDDFGVEKEEISDDNAKLPCFNGRVVSWLVSA [V55E],-0.104 ± 0.059
13,GETKIIYHLDGQETPYLVKLPLPAERVTLADFKGVLQRPSYKFFFKSMDDDFGVSKEEISDDNAKLPCFNGRVVSWLVSA [V55S],-0.148 ± 0.054
14,GETKIIYHLDGQETPYLVKLPLPAERVTLADFKGVLQRPSYKFFFKSMDDDFGVYKEEISDDNAKLPCFNGRVVSWLVSA [V55Y],0.2 ± 0.08
15,GETKIIYHLDGQETPYLVKLPLPAERVTLADFKGVLQRPSYKFFFKSMDDDFGVKKEEISDDNAKLPCFNGRVVSWLVSA [V55K],0.199 ± 0.061
16,GETKIIYHLDGQETPYLVKLPLPAERVTLADFKGVLQRPSYKFFFKSMDDDFGVPKEEISDDNAKLPCFNGRVVSWLVSA [V55P],-0.895 ± 0.14
17,GETKIIYHLDGQETPYLVKLPLPAERVTLADFKGVLQRPSYKFFFKSMDDDFGVGKEEISDDNAKLPCFNGRVVSWLVSA [V55G],-0.335 ± 0.046
